In the supplement of paper PMC7125110:
± gives the standard error. Variants at the floor of the assay were thinned out.

B1: glmS ribozyme (parent)
chain: AUAAAAGCGCCAGAACUACAGAAAUGUAGUUGACGAGGAGGAGGUUUAUCGAAUUUUCGGCGGAUGCCUCCAAA

Experiments:
Details in all cases: with glucosamine-6-phosphate
[1] = variants of: B1; assay: self-cleavage kobs at 640 uM GlcN6P; higher = faster cleavage; RNA array
Outline: (§1)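 kobs was derived by fitting per-tile medians to one- or two-exponential decays after normalising signals to baseline and to non-cleaving reference variants. Those signals came from barcoded ribozyme variants transcribed in situ by E. coli RNA polymerase on sequenced MiSeq chips, followed through a hybridised Cy3 probe at 37 °C and imaged over ~14 h. Glucosamine-6-phosphate (40 μM to 10 mM) in HEPES/KCl/Mg(OAc)2 buffer was flowed in. Weighted Michaelis–Menten fits across concentrations then gave kcat and KM.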

[2] = variants of: B1; assay: self-cleavage kobs at 2500 uM GlcN6P; higher = faster cleavage; RNA array
Outline: as §1

[3] = variants of: B1; assay: self-cleavage kobs at 10000 uM GlcN6P; higher = faster cleavage; RNA array
Outline: as §1

Row | Variant | self-cleavage kobs at 640 uM GlcN6P [1] | self-cleavage kobs at 2500 uM GlcN6P [2] | self-cleavage kobs at 10000 uM GlcN6P [3]
1 | U46A C68G C71G | 0.00075 ± 0.00031 s⁻¹ | – | –
2 | A39G G44A C58A | < 1e-05 s⁻¹ | – | –
3 | U45C C50A U56C | < 1e-05 s⁻¹ | – | –
4 | A39U A42C U49G | < 1e-05 s⁻¹ | – | –
5 | U45G G66C | 0.000414 ± 0.00017 s⁻¹ | 0.000927 ± 0.00042 s⁻¹ | 0.00369 ± 0.00067 s⁻¹
6 | G40U C50A C67G | < 1e-05 s⁻¹ | – | –
7 | U45C A53U C67G | 0.00389 ± 0.0016 s⁻¹ | – | –
8 | G43U U54G C58A C67U | < 1e-05 s⁻¹ | – | –
9 | A42C A53U U56G | < 1e-05 s⁻¹ | – | –
10 | G41C A48U C71U | < 1e-05 s⁻¹ | – | –
11 | A39U A42C A53U C58U | < 1e-05 s⁻¹ | < 1e-05 s⁻¹ | –
12 | G40A U45A C70U | 4.7e-05 ± 2.2e-05 s⁻¹ | 7.49e-05 ± 2.1e-05 s⁻¹ | –
13 | U45C A53C | 9.37e-05 ± 1.6e-05 s⁻¹ | – | 0.000403 ± 0.00014 s⁻¹
14 | G41C U45G C71U | 4.68e-05 ± 1.6e-05 s⁻¹ | 0.000157 ± 3.9e-05 s⁻¹ | –
15 | G44A U46C C68A | < 1e-05 s⁻¹ | < 1e-05 s⁻¹ | –
16 | U45C U47A | 0.000335 ± 8.3e-05 s⁻¹ | 0.000441 ± 0.00018 s⁻¹ | –
17 | A42G G43A U46G G66U | < 1e-05 s⁻¹ | < 1e-05 s⁻¹ | –
18 | A39U G41U U47A A52C | < 1e-05 s⁻¹ | < 1e-05 s⁻¹ | –
19 | A42G G51U C70U | < 1e-05 s⁻¹ | – | –
20 | A42G U55C G66U | 0.000398 ± 7.7e-05 s⁻¹ | 0.000634 ± 0.00014 s⁻¹ | 0.00167 ± 0.00029 s⁻¹
21 | U45G U46G U55C G63A | < 1e-05 s⁻¹ | < 1e-05 s⁻¹ | –
22 | A42C C61G C70A | < 1e-05 s⁻¹ | < 1e-05 s⁻¹ | < 1e-05 s⁻¹

Row | Variant | self-cleavage kobs at 640 uM GlcN6P [1] | self-cleavage kobs at 2500 uM GlcN6P [2] | self-cleavage kobs at 10000 uM GlcN6P [3]
23 | U46G A53G G66U | 7.95e-05 ± 2e-05 s⁻¹ | 0.000148 ± 5.2e-05 s⁻¹ | –
24 | G41A A48C A52U | < 1e-05 s⁻¹ | – | –
25 | G44C A52G U54G | < 1e-05 s⁻¹ | < 1e-05 s⁻¹ | –
26 | A39C G43A G66A | < 1e-05 s⁻¹ | – | –
27 | G41U A53U U69G | < 1e-05 s⁻¹ | – | –
28 | G41C G63C A64U | < 1e-05 s⁻¹ | < 1e-05 s⁻¹ | –
29 | G41U G43U U45C A53U C71U | < 1e-05 s⁻¹ | < 1e-05 s⁻¹ | –
30 | A42C U47G U57C | < 1e-05 s⁻¹ | < 1e-05 s⁻¹ | –
31 | G43U G62C C67A | < 1e-05 s⁻¹ | < 1e-05 s⁻¹ | < 1e-05 s⁻¹
32 | G41A G44A G60A | < 1e-05 s⁻¹ | – | –
33 | U46A U47C C70A | 9.01e-05 ± 2.2e-05 s⁻¹ | 0.000206 ± 3.7e-05 s⁻¹ | –
34 | A39C U56C | 0.00018 ± 3.3e-05 s⁻¹ | 0.000456 ± 0.00015 s⁻¹ | 0.00101 ± 0.00021 s⁻¹
35 | G41U U46G A48C U49C | < 1e-05 s⁻¹ | – | –
36 | G43A U47A A53C G59C | < 1e-05 s⁻¹ | < 1e-05 s⁻¹ | –
37 | A39C U45A C68G | < 1e-05 s⁻¹ | – | –
38 | U45G U46C C61A G66U | < 1e-05 s⁻¹ | < 1e-05 s⁻¹ | –
39 | G43A U45A A53U G62C A64U | < 1e-05 s⁻¹ | < 1e-05 s⁻¹ | –
40 | G40U G44U C68U | < 1e-05 s⁻¹ | – | –
41 | G40U C50A G51A | < 1e-05 s⁻¹ | – | –
42 | G40U U47C A53C U54A | 7.34e-05 ± 2.8e-05 s⁻¹ | 0.000202 ± 3.7e-05 s⁻¹ | –
43 | A42U G44C A52C U57G U65A U69C | < 1e-05 s⁻¹ | < 1e-05 s⁻¹ | –
44 | G40U U46C U55G | 0.000194 ± 6.6e-05 s⁻¹ | – | –

Row | Variant | self-cleavage kobs at 640 uM GlcN6P [1] | self-cleavage kobs at 2500 uM GlcN6P [2] | self-cleavage kobs at 10000 uM GlcN6P [3]
45 | A39G U46C U47G U65A | 0.0001 ± 3.8e-05 s⁻¹ | – | –
46 | A42G A64G C71G | 0.000615 ± 0.00014 s⁻¹ | 0.00107 ± 0.0003 s⁻¹ | 0.000757 ± 0.00025 s⁻¹
47 | G40U C50U G63A C67A | < 1e-05 s⁻¹ | < 1e-05 s⁻¹ | –
48 | U45G U47A A52G C68G | < 1e-05 s⁻¹ | – | –
49 | A42G U45C G59C G62U C68U | < 1e-05 s⁻¹ | – | –
50 | U45C A52G C70U | 4.7e-05 ± 1.6e-05 s⁻¹ | 6.92e-05 ± 1.3e-05 s⁻¹ | –
51 | G44A A48U U56G | < 1e-05 s⁻¹ | < 1e-05 s⁻¹ | –
52 | G40C C50U G60C | < 1e-05 s⁻¹ | – | < 1e-05 s⁻¹
53 | A42U U47A U54C | 3.85e-05 ± 9.6e-06 s⁻¹ | – | –
54 | G41A U54A | 0.000113 ± 2.9e-05 s⁻¹ | 0.000311 ± 8.8e-05 s⁻¹ | 0.000101 ± 2.1e-05 s⁻¹
55 | A39C U55G C67U | 7.28e-05 ± 1.4e-05 s⁻¹ | – | –
56 | G44U A48G C50G | < 1e-05 s⁻¹ | < 1e-05 s⁻¹ | < 1e-05 s⁻¹
57 | G43U A52C G66C C68G | < 1e-05 s⁻¹ | < 1e-05 s⁻¹ | –
58 | G40U U55A C71A | 0.00279 ± 0.00086 s⁻¹ | – | 0.0227 ± 0.0049 s⁻¹
59 | A39U G43C G44A G51U | < 1e-05 s⁻¹ | < 1e-05 s⁻¹ | –
60 | G43C U69G | < 1e-05 s⁻¹ | – | < 1e-05 s⁻¹
61 | A42C U49G C58A | < 1e-05 s⁻¹ | < 1e-05 s⁻¹ | –
62 | A42C C67U C71G | < 1e-05 s⁻¹ | – | –
63 | G40A U57C C58A C61U | < 1e-05 s⁻¹ | – | –
64 | G43A G44C C67A C70A | < 1e-05 s⁻¹ | < 1e-05 s⁻¹ | –
